Here are results for 1 molecule from paper PMC11982978 (2025).

Square brackets hold non-standard residues; d marks the D form. Ends that are not written are not given here.

The target in the test is Active phosphorylated His6-tagged ERK2 WT (rat (p-0033 says mouse), UniProt P63086 3-358, phosphorylated (active form; sites not given)).

B1: FAAP100 D-peptide (peptide)
chain: [dL][dC][dA][dR][dR]G[dL][dY][dC][dL][dS][dL][dD][dH]
modifications: cysteine pairing not given here
For orientation: IC50 means the midpoint of a concentration-inhibition curve. Lower therefore signals higher potency. Molecule B1 gave an IC50 of 92 µM.
